# In patent US8795627B2, “Treatment of liver disorders by administration of RAP conjugates” (Raptor Pharmaceuticals Inc., priority 2007, dated 2014):
# Bridge positions count the residues as written; N and C are the ends. * marks the point of attachment. Biotin = O=C1N[C@H]2[C@H](CS[C@H]2CCCCC(=O)*)N1
# Experiments:
# [1] = test system: wild-type CHO-K1 cells; assay: MTT cell viability after toxin delivery, wild-type CHO-K1; conditions: 48 hours
# Procedure: (§2) In order to determine whether a RAP peptide conjugated to a cytotoxic agent could effectively deliver the toxin to the cell and initiate cell death, an in vitro assay was used to assess delivery of toxin via the RAP-LRP1 binding and internalization pathway.
# (§3) Wild-type and LRP1-deficient CHO-K1 cells were grown in BioWhittaker Ultra-CHO supplemented with 5% fetal bovine serum. Cells were seeded in 12-well plates 48 hours prior to the experiment. […] The mixture was diluted into growth media to 100 nM and added to wells in duplicate. […] Cells were incubated for 48 hours at 37° C., 5% CO2 in a humidified chamber. Cell viability for each treatment condition was determined with an MTT assay kit (Invitrogen, San Diego).
# [2] = biological target: T1, recombinant human LRP1 cluster II (Homo sapiens, UniProt Q07954); assay: Solid phase binding assay, affinity for LRP1 cluster II
# T1 construct: R&D Systems, amino acids 786-1165, with C-terminal Fc tag; purchased R&D Systems
# T1 sequence (Q07954 805-1184): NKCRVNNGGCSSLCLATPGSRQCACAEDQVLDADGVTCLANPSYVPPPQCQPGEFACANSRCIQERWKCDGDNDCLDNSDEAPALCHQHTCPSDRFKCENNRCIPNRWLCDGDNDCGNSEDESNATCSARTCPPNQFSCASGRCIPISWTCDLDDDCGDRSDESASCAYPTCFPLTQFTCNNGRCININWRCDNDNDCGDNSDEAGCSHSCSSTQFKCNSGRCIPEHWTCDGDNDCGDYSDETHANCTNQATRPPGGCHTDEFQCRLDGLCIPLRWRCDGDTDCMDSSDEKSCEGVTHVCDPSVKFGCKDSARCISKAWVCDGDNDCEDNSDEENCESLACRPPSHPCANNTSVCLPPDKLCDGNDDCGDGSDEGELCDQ
# Text: (§1) Control wells contained no added inhibitor. […] Excess HRP conjugate was removed and wells washed. Color was developed using TMB reagents (BioRad, Hercules, Calif.).
# [3] = in vivo
# [4] = in vivo, iv; cited from earlier work
# [5] = biological target: T2, LRP1-C2 (Homo sapiens, UniProt Q07954); assay: Inhibition of RAP d3 binding to LRP1-C2, solid phase assay (streptavidin multimerization); set-up: R&D Systems, amino acids 786-1165, with C-terminal Fc tag; purchased R&D Systems
# T2 sequence (Q07954 805-1184): T1 sequence (Q07954 805-1184)
# Text: as §1
# [6] = biological target: T2, LRP1-C2; assay: Inhibition of RAP d3 binding to LRP1-C2, solid phase assay (anti-biotin antibody, preincubation with receptor); conditions: fit parameter of inhibition curve, 2 nM RAP d3
# Procedure: Briefly, recombinant human LRP1 cluster II (R&D Systems, amino acids 786-1165, with C-terminal Fc tag, 1 μg) was used to coat Nunc MAXISORP™ 96-well plates in TBS pH 8 supplemented with 5 mM CaCl2 (TBSC) overnight at 4° C. Wells were washed with TBSC and blocked with TBSC containing 2% BSA.
# Since the ligand binding competence of CR pairs requires calcium, identical binding reactions were done in the presence of 50 mM EDTA to provide a measure of non-specific binding. Control wells contained no added inhibitor. Wells were washed with TBS supplemented with 5 mM CaCl2 and 0.05% Tween-20. Bound ligand was detected with either anti-5-peptide-HRP conjugate (Abcam) or anti-α-2-macroglobulin-HRP conjugate (Abcam). Excess HRP conjugate was removed and wells washed. Color was developed using TMB reagents (BioRad, Hercules, Calif.). Absorption at 450 nm was measured with a microplate spectrophotometer (Molecular Devices, Palo Alto).
# The same procedure was performed for the controls; peptide alone, antibody alone and full-length RAP.
# [7] = rat, in vivo, iv; cited from earlier work
# [8] = in vivo, iv; cited from earlier work; remark: listed apart in the source
# [9] = test system: LRP1-deficient CHO-K1 cells; assay: MTT cell viability after toxin delivery, LRP1-deficient CHO-K1; conditions: LRP-deficient CHO-K1, 1 μM, 48 hours
# Procedure: as §2, §3
# [10] = test system: hepatocellular carcinoma; conditions: systemic chemotherapy, HCC patients; cited from earlier work
compound,measurement,setting,value
biotin-GGSGGCGFREELKHFEAKIEKHNHYQKQLEIAHEKLRHAESVGDGERVSRS REKHALLEGRTKELGYTVKKHLQDLSGGC [mini-RAPc],effect on cell survival,"[1]; 100 nM, cell type not specified (wild-type and LRP1-deficient CHO-K1 tested)",no significant effect on cell survival
Biotin-GGSGGCGKHFEAKIEKHNHYQKQLEIAHEKLRHAESVGDGERVSRSREKHALLEGRTKELGYTVKKHLQDGC (disulfide 6-72 (inferred)) [mRAP-8c],Kd,[2],~4 nM
Biotin-GGSGGCEAKIEKHNHYQKQLEIAHEKLRHAESVGDGERVSRSREKHALLEGRTKELGYTVKKHGC (disulfide 6-65 (inferred)) [mRAP-14c],Kd,[2],~21 nM
"streptavidin: streptavidin alone, control (35S-labeled in bio-distribution studies) [reference compound]","uptake in the woodchuck liver, mean",[3],435 PSL/mm^2
same,tissue accumulation,[4],"accumulate in kidney, but not significantly in liver"
same,inhibitory effect on RAP d3 binding,[5]; in words,no inhibitory effect
"RAP: mature full-length receptor-associated protein, 323 amino acids (SEQ ID NO: 1); Tables 3 and 4, b198",Maximum binding,[6],0.74
same,"accumulation in heart, brain, muscle or kidney",[7],< 1 % of injected dose
same,circulating half-life,[7],less than a minute
same,fold better EC50 than peptide assembled on streptavidin,[5],about 10 fold
same,Maximum binding,"[5]; fit parameter of inhibition curve, 2 nM RAP d3",0.29
same,toxicity,[8],no measurable toxicity
Saporin [reference compound],loss of viable cells,"[1]; wild-type CHO-K1, 1 μM",about 55%
same,loss of viable cells,[9],~35%
COc1cccc2c1C(=O)c1c(O)c3c(c(O)c1C2=O)C[C@@](O)(C(=O)CO)C[C@@H]3O[C@H]1C[C@H](N)[C@H](O)[C@H](C)O1 [adriamycin],response rates,[10],15-20%
